From article PMC6354057 (Molecules and Cells, 2019)

Biological target: the molecule itself
Assay: crystal structure

B1: Histidine triad nucleotide-binding protein (HINT) from Candida albicans (enzyme, UniProt Q59WG0 1-152, looked up)
chain: MASHASCIFCKIIKGEIPSFKLIETAKTYSFLDIQPIAEAHVLIIPKHHGAKLHNIPDDYLSDILPVVKKLTKVLKLDENNTPEGEGYNVLQNNGRIAHQVVDHVHFHLIPKKDEATGLGVGWPAEATDFDKLGKLHEKLKEELAKVDNEKL
B1 was tested, and the “stoichiometry N” value was 2.
